The text below walks through data of patent publication US20060029603A1 (GlaxoSmithKline, published 2006).

Like-named read-outs stand apart in the source and are kept apart here.

Usually EC50 (read off the curve) stands for the concentration that produces a half-maximal response. As usually defined, the koff is a measure of how fast the partners let go of each other. Read a high koff as fast dissociation. The term Kd denotes the equilibrium constant for the complex coming apart. In general, kon refers to a measure of how fast the partners come together.

The target of assay [1] is T1, GST-human NOGO-A56 (human, UniProt P08515 1-218 = GST).
T1 construct: GST-tagged fusion expressed in E. coli BL21 and purified on glutathione-sepharose; coated on ELISA plates or amine-coupled to a CM5 chip; also called hNOGO; recombinant human NOGO
The assay can be described thus: ELISA, coated GST-human NOGO-A56, transfection supernatant, anti-human kappa-HRP, OD 490 nm. As for the experimental part:
(§1) GST-human NOGO-A56 (SEQ ID: 76) at 1 μg/ml in PBS was coated onto Nunc Immunosorp plates (100 μl per well) at 4° C. overnight. Wells were rinsed once with TBS+0.05% Tween (TBST) then incubated with 2% BSA in TBST to block non-specific binding sites at room temperature for 1 hour. Antibodies were diluted in TBST+2% BSA to 10 μg/ml and 1/2 dilutions made from this. Antibodies were added to wells in duplicate and incubated at room temperature for 1 hour. Wells were washed three times with TBST then incubated with anti-human kappa peroxidase conjugate (1:2000) for 1 hour. The wells were washed three times with TBST and then incubated with 100 μl OPD peroxidase substrate (Sigma) per well for 10 minutes. The colour reaction was stopped by the addition of 25 μl concentrated H₂SO₄. Optical density at 490 nm was measured using a plate reader. Background values read from wells with no antibody were subtracted.

Assay [2] deals with T1, GST-human NOGO-A56. Described as above. Here is the method: as §1
This is another data set of the same source.

The target of assay [3] is T1, GST-human NOGO-A56. Described as above. Here is the method:
as §1
This is another data set of the same source.

Assay [4] has as its target T1, GST-human NOGO-A56. The assay can be described thus: SPR (Biacore) off-rate ranking, CHO-K1 transient supernatant over GST-human NOGO-A56 chip; mean (SD) of two runs. Here is the method:
(§2) hNOGO (GST-human NOGO-A56) was immobilised to a CM5 chip by primary amine coupling using the Biacore Wizard program designed for targeted immobilisation levels. The CM5 sensor surface was activated by passing a solution of 50 mM N-hydroxy-succinimide (NHS) and 200 mM N-ethyl-N′-dimethylaminopropyl […] (EDC). Then hNOGO in sodium acetate buffer, pH5.0 or pH 4.5, was passed over the chip and immobilised. After immobilisation was complete any still activated esters were blocked by an injection of 1M ethanolamine hydrochloride, pH8.5.
The hNOGO chip was prepared as for kinetic analysis. Cell supernatants where taken directly from transient transfections of CHO-K1 cells. These were passed directly over the sensor surface and the interaction measured. A mock transfected cell supernatant was used for double referencing to remove any artefacts due to the tissue culture media. All runs were referenced against a blanked sensor surface (one that had been activated and blocked as described earlier but had no addition of ligand). Analysis of binding was carried out using the BIAevaluation kinetic analysis software version 4.1.
(In general: SPR reads the build-up and loss of mass on a sensor chip optically.)

Assay [5] addresses T1, GST-human NOGO-A56. The assay can be described thus: SPR (Biacore 3000), GST-human NOGO-A56 amine-coupled to CM5, antibody as analyte; mean (SD) of four experiments. Here is the method: (§3) The binding kinetics of the anti-NOGO monoclonal antibody (mAb) to recombinantly expressed human NOGO-A (GST-human NOGO-A56) was analysed using the Biacore3000 biosensor. The hNOGO-A chip was prepared as follows:
as §2
(§4) The anti-NOGO mAbs were diluted down in HBS-EP (10 mM HEPES, pH 7.4, 150 mM NaCl, 3 mM EDTA, and 0.005% P-20 surfactant) and binding studies were carried out at range of defined antibody concentrations. All runs were referenced against a blanked sensor surface (one that had been activated and blocked as described earlier but had no addition of ligand). Analysis of binding was carried out using the BIAevaluation kinetic analysis software version 4.1. Biacore analysis of other antibodies of the invention essentially followed the same protocol as described herein.

Assay [6] addresses T1, GST-human NOGO-A56. The assay can be described thus: SPR (BiaCore kinetic analysis), human NOGO.
For assay [7], the target named is T1, GST-human NOGO-A56. The assay can be described thus: SPR (Biacore 3000), GST-human NOGO-A56 on CM5, antibody as analyte; mean (SD) of two experiments. As for the experimental part:
as §2, §4

For assay [8], the target named is T1, GST-human NOGO-A56. The assay can be described thus: SPR (Biacore 3000), GST-human NOGO-A56 on CM5, antibody as analyte; mean (SD) of two experiments; mean (SD) of two separate experiments. As for the experimental part: as §2, §4
For assay [9], the target named is T1, GST-human NOGO-A56. The assay can be described thus: ELISA, coated GST-human NOGO-A56, transfection supernatant, anti-human kappa-HRP, OD 490 nm. Here is the method:
as §1
The source holds these as a separate data set. On the technique in general: In an ELISA, binding on a coated surface is turned into a signal by an enzyme label.

Assay [10] has as its target T1, GST-human NOGO-A56. The assay can be described thus: SPR (Biacore 3000), GST-human NOGO-A56 on CM5, antibody as analyte; single experiment. As for the experimental part:
as §3, §2, §4

For assay [11], the target named is T1, GST-human NOGO-A56. The assay can be described thus: ELISA, coated GST-human NOGO-A56, transfection supernatant, anti-human kappa-HRP, OD 490 nm. As for the experimental part: as §1
The source holds these as a separate data set.

Assay [12] has as its target T1, GST-human NOGO-A56. Described as above. Here is the method:
as §1
This is another data set of the same source.

T1 sequence (P08515 1-218, tags or fused parts left off): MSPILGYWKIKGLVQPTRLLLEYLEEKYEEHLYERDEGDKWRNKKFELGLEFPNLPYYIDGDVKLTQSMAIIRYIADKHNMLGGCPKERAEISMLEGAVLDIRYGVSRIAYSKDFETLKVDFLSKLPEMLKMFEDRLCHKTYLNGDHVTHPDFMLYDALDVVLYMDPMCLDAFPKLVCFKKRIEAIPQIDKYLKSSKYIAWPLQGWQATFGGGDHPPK

B1: H18L16 (antibody, human IgG1, kappa, V domains shown)
VH: QVQLVQSGAEVVKPGASVKLSCKASGYTFTSYWMHWVKQRPGQGLEWIGNINPSNGGTNYNEKFKSKATLTVDKSSSTAYMELSSLRSEDSAVYYCELGQGYWGQGTLVTVSS
VL: DIVMTQSPLSNPVTLGQPVSISCRSSKSLLYKDGKTYLNWFLQRPGQSPQLLIYLMSTRASGVPDRFSGGGSGTDFTLKISRVEAEDVGVYYCQQLVEYPLTFGQGTKLEIKR
notes: Humanised 2A10; also called H18L16 FL
Take B1: the results for the “EC50 (read off the curve)” value with GST-human NOGO-A56 [1], with GST-human NOGO-A56 [2] and with GST-human NOGO-A56 [3] were roughly 0.04 mg/L, roughly 0.4 mg/L and roughly 0.4 mg/L, respectively. Further, the koff with GST-human NOGO-A56 [4] stood at 0.00687 s⁻¹; in the assay with GST-human NOGO-A56 [5], 0.00586 s⁻¹. The Kd in the assay with GST-human NOGO-A56 [5] is 1.62 nM. Moreover, in the assay with GST-human NOGO-A56 [5], the kon turned out to be 3.64e+06 M⁻¹ s⁻¹.

B2: murine monoclonal antibody 2A10 (antibody, V domains shown)
VH: QVQLQQPGTELVKPGASVKLSCKASGYTFTSYWMHWVKQRPGQGLEWIGNINPSNGGTNYNEKFKSKATLTVDKSSSTAYMQLSSLTSEDSAVYYCELGQGYWGQGTTLTVSS
VL: DIVITQDELSNPVTSGESVSISCRSSKSLLYKDGKTYLNWFLQRPGQSPQLLIYLMSTRASGVSDRFSGSGSGTDFTLEISRVKAEDVGVYYCQQLVEYPLTFGAGTKLELK
notes: Murine antibody; also called donor antibody
In the assay with GST-human NOGO-A56 [6], B2 showed a Kd of roughly 1 nM and a koff of roughly 0.00184 s⁻¹.

B3: H6Lc (antibody, human IgG1, kappa, V domains shown)
VH: QVQLVQSGAEVKKPGASVKVSCKASGYTFTSYWMHWVRQAPGQGLEWIGNINPSNGGTNYNEKFKSRATMTRDTSTSTAYMELSSLRSEDTAVYYCELGQGYWGQGTLVTVSS
VL: DIVITQDELSNPVTSGESVSISCRSSKSLLYKDGKTYLNWFLQRPGQSPQLLIYLMSTRASGVSDRFSGSGSGTDFTLEISRVKAEDVGVYYCQQLVEYPLTFGAGTKLELKR
notes: Humanised heavy chain H6 paired with chimeric light chain Lc; The pairing is read from the name
In the assay with GST-human NOGO-A56 [7], B3 gave a koff of 0.00284 s⁻¹ and a kon of 2.17e+06 M⁻¹ s⁻¹. Moreover, the Kd with GST-human NOGO-A56 [8] came to 2.21 nM.

B4: HcLc (chimera of 2A10: murine 2A10 VH and VL with human IgG constant regions) (antibody, V domains shown)
VH: QVQLQQPGTELVKPGASVKLSCKASGYTFTSYWMHWVKQRPGQGLEWIGNINPSNGGTNYNEKFKSKATLTVDKSSSTAYMQLSSLTSEDSAVYYCELGQGYWGQGTLVTVSS
VL: DIVITQDELSNPVTSGESVSISCRSSKSLLYKDGKTYLNWFLQRPGQSPQLLIYLMSTRASGVSDRFSGSGSGTDFTLEISRVKAEDVGVYYCQQLVEYPLTFGAGTKLELKR
notes: Human gamma1 mutated constant region and human kappa; also called 2A10 chimeric antibody; the chimera
In the case of B4, the Kd was 0.995 nM with GST-human NOGO-A56 [7], 1.6 nM with GST-human NOGO-A56 [10] and 1.41 nM in the assay with GST-human NOGO-A56 [5]. In addition, the koff with GST-human NOGO-A56 [7] is 0.00346 s⁻¹; with GST-human NOGO-A56 [10] it was 0.00412 s⁻¹; in the assay with GST-human NOGO-A56 [4], 0.00376 s⁻¹; with GST-human NOGO-A56 [5], 0.00378 s⁻¹. The kon with GST-human NOGO-A56 [7] turned out to be 3.52e+06 M⁻¹ s⁻¹; with GST-human NOGO-A56 [10], 2.62e+06 M⁻¹ s⁻¹; with GST-human NOGO-A56 [5], 2.7e+06 M⁻¹ s⁻¹. Further, the “EC50 (read off the curve)” value is roughly 0.02 mg/L with GST-human NOGO-A56 [9]; roughly 0.2 mg/L with GST-human NOGO-A56 [2]; roughly 0.2 mg/L with GST-human NOGO-A56 [3]; roughly 0.09 mg/L in the assay with GST-human NOGO-A56 [11]; roughly 0.05 mg/L with GST-human NOGO-A56 [12].
